IntAct's records for PubMed 23957209

B1: NADPH oxidase organizer 1 (Homo sapiens), Q8NFA2-3 (parent)
chain: MAGPRYPVSVQGAALVQIKRLQTFAFSVRWSDGSDTFVRRSWDEFRQLKKTLKETFPVEAGLLRRSDRVLPKLLDAPLLGRVGRTSRGLARLQLLETYSRRLLATAERVARSPTITGFFAPQPLDLEPALPPGSRVILPTPEEQPLSRAAGRLSIHSLEAQSLRCLQPFCTQDTRDRPFQAQAQESLDVLLRHPSGWWLVENEDRQTAWFPAPYLEEAAPGQGREGGPSLGSSGPQFCASRAYESSRADELSVPAGARVRVLETSDRGWWLCRYGDRAGLLPAVLLRPEGLGALLSGTGFRGGDDPAGEARGFPEPSQATAPPPTVPTRPSPGAIQSRCCTVTRRALERRPRRQGRPRGCVDSVPHPTTEQ
partner: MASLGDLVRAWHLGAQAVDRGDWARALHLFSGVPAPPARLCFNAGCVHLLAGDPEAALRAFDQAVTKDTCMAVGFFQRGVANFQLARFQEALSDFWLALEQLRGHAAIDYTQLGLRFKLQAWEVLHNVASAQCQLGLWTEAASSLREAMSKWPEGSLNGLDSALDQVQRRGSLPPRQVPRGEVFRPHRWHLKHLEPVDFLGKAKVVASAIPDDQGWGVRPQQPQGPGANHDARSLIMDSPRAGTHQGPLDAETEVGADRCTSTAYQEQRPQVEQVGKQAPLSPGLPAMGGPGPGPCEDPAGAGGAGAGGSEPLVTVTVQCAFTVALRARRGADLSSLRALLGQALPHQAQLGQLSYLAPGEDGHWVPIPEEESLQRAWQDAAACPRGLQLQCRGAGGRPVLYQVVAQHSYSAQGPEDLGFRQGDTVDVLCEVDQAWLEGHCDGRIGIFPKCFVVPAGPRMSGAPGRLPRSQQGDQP
B2: Cytochrome b-245 light chain (Homo sapiens), P13498 (parent)
chain: MGQIEWAMWANEQALASGLILITGGIVATAGRFTQWYFGAYSIVAGVFVCLLEYPRGKRKKGSTMERWGQKYMTAVVKLFGPFTRNYYVRAVLHLLLSVPAGFLLATILGTACLAIASGIYLLAAVRGEQWTPIEPKPRERPQIGGTIKQPPSNPPPRPPAEARKKPSEEEAAVAAGGPPGGPQVNPIPVTDEVV
partner: B1 chain
B3: NADPH oxidase organizer 1 (Homo sapiens), Q8NFA2-3 (parent)
chain: B1 chain
partner: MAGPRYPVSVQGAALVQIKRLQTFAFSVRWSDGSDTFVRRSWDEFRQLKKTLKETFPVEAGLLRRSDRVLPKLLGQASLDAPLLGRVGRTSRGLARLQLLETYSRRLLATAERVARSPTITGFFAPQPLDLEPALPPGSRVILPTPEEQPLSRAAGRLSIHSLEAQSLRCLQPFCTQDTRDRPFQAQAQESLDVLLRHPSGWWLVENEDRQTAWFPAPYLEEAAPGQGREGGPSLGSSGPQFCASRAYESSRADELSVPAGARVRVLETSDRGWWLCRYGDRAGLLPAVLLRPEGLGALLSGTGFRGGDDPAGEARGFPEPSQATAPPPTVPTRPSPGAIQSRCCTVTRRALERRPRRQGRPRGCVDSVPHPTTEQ
B4: NADPH oxidase organizer 1 (Homo sapiens), Q8NFA2-3 (parent)
chain: B1 chain
partner: B2 chain
B5: NADPH oxidase activator 1 (Homo sapiens), Q86UR1 (parent)
chain: B1 partner
partner: B1 chain

Variants of: B1
Settings: with noxa1_human NOXA1, Q86UR1

Row | Variant | effect of a mutation on the interaction
1 | T341A | disrupting interaction

Variants of: B1
Settings: with noxa1_human NOXA1, Q86UR1
Remark: another data set of the same source

Row | Variant | effect of a mutation on the interaction
2 | T341E | increasing interaction

Variants of: B1
Settings: with noxa1_human NOXA1, Q86UR1
Remark: another data set of the same source

Row | Variant | effect of a mutation on the interaction
3 | T341D | increasing interaction

Variants of: B1
Settings: with noxa1_human NOXA1, Q86UR1
Remark: another data set of the same source

Row | Variant | effect of a mutation on the interaction
4 | T343A | disrupting interaction

Variants of: B2
Settings: with NOXO1, Q8NFA2-3

Row | Variant | effect of a mutation on the interaction
5 | P156Q | disrupting interaction

Variants of: B3
Settings: with noxo1_human NOXO1, Q8NFA2

Row | Variant | effect of a mutation on the interaction
6 | W197R | disrupting interaction

Variants of: B4
Settings: with cy24a_human CYBA, P13498

Row | Variant | effect of a mutation on the interaction
7 | S195A | decreasing interaction

Variants of: B4
Settings: with cy24a_human CYBA

Row | Variant | effect of a mutation on the interaction
8 | S195D | decreasing interaction

Variants of: B4
Settings: with cy24a_human CYBA
Remark: another data set of the same source

Row | Variant | effect of a mutation on the interaction
9 | S195E | decreasing interaction

Variants of: B5
Settings: with NOXO1, Q8NFA2-3

Row | Variant | effect of a mutation on the interaction
10 | W436R | disrupting interaction
